Values belong to the binder of their own block, whether it stands above or below them.
How the values were obtained:
[1] = biological target: T1, recombinant PD-L1 extracellular domain fused to the mouse IgG1 Fc domain (SinoBiologicals) (human; mouse, UniProt Q9NZQ7 19-238); experiment: BLI (Octet), recombinant PD-L1-mouse Fc on the sensor, VHH dilution series
T1 construct: extracellular domain; also called human PD-L1-mouse Fc; PD-L1-mouse Fc protein; not shown: mouse IgG1 Fc domain
Protocol: (§1) Affinities of resulting variants were measured using the bio-layer interferometry technology on an Octet Red 96 instrument (ForteBio). In brief, recombinant PD-L1 extracellular domain fused to the mouse IgG1 Fc domain (SinoBiologicals) was immobilized on anti-murine IgG quantitation (AMQ) biosensors (ForteBio). Loaded sensors were incubated with a serial dilution of PD-L1 VHH variant, association and dissociation monitored and kinetic parameters were calculated using the Octet Data Analysis software v10 (ForteBio).
The isomerization motif in all these variants was removed by the D54G mutation. Variants were produced as described above and affinity measured on an Octet instrument using the recombinant PD-L1-mouse Fc protein.

[2] = biological target: T1, recombinant PD-L1 extracellular domain …; experiment: BLI (Octet Red 96), PD-L1-mouse IgG1 Fc on AMQ biosensors, VHH dilution series
Protocol: as §1

[3] = biological target: T1, recombinant PD-L1 extracellular domain …; experiment: BLI (Octet Red 96); ratio of the printed KDs, 2LIG99 over variant
Protocol: as §1

[4] = biological target: T1, recombinant PD-L1 extracellular domain …; experiment: BLI (Octet Red 96), PD-L1-mouse IgG1 Fc on AMQ biosensors, VHH dilution series; remark: listed apart in the source
Protocol: as §1
(§2) The aspartic acid at position 1 was included to avoid the risk of pyroglutamate formation. […] Resulting mutants were purified and affinities measured as described in Example 1.

[5] = biological target: T1, recombinant PD-L1 extracellular domain …; experiment: BLI (Octet), PD-L1-mouse Fc on the sensor, VHH dilution series, as described above
Protocol: as §1

[6] = biological target: T1, recombinant PD-L1 extracellular domain …; experiment: BLI (Octet Red 96); ratio of the printed KDs, variant over 2LIG189
Protocol: as §1, §2

T1 sequence (Q9NZQ7 19-238): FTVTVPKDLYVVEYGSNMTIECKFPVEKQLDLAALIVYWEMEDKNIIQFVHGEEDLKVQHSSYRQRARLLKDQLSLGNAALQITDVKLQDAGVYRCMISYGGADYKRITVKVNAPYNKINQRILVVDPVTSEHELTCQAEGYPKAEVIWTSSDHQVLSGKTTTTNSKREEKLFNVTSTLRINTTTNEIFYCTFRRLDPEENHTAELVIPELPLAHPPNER

B1: 2LIG99 VHH (VHH)
VHH: QVQLQESGGGLVQAGGSLRLSCTASGTIFSINRMDWFRQAPGKQRELVALITSDGTPAYADSAKGRFTISRDNTKKTVSLQMNSLKPEDTAVYYCHVSSGVYNYWGQGTQVTVSS
notes: Parental PD-L1 VHH; stands here as the molecule on which the mutations are counted; also called wild-type 2LIG99; not shown: C-terminal His-tag
Kd [1]: 0.719 nM
koff [1]: 0.000721 s⁻¹
kon [1]: 1e+06 M⁻¹ s⁻¹
Kd [2]: 0.282 nM
koff [2]: 0.000447 s⁻¹
kon [2]: 1.58e+06 M⁻¹ s⁻¹

B2: 2LIG99_OPT_D54G (VHH)
VHH: DVQLVESGGGLVQPGGSLRLSCTASGTIFSINRMDWFRQAPGKQRELVALITSGGTPAYADSAKGRFTISRDNSKKTVSLQMNSLRPEDTAVYYCHVSSGVYNYWGQGTLVTVSS
Kd [1]: 0.553 nM
koff [1]: 0.000856 s⁻¹
kon [1]: 1.55e+06 M⁻¹ s⁻¹

B4: 2LIG99_OPT1 (VHH)
VHH: DVQLVESGGGLVQPGGSLRLSCTASGTIFSINRMDWFRQAPGKQRELVALITSDGTPAYADSAKGRFTISRDNSKKTVSLQMNSLRPEDTAVYYCHVSSGVYNYWGQGTLVTVSS
Ratio KD [3]: 0.35
Kd [2]: 0.794 nM
koff [2]: 0.000704 s⁻¹
kon [2]: 886000 M⁻¹ s⁻¹

B6: 2LIG99_OPT_D54G_A63V (VHH)
VHH: DVQLVESGGGLVQPGGSLRLSCTASGTIFSINRMDWFRQAPGKQRELVALITSGGTPAYADSVKGRFTISRDNSKKTVSLQMNSLRPEDTAVYYCHVSSGVYNYWGQGTLVTVSS
Kd [1]: 1.16 nM
koff [1]: 0.00151 s⁻¹
kon [1]: 1.3e+06 M⁻¹ s⁻¹

B7: 2LIG99_D55T (VHH)
VHH: QVQLQESGGGLVQAGGSLRLSCTASGTIFSINRMDWFRQAPGKQRELVALITSTGTPAYADSAKGRFTISRDNTKKTVSLQMNSLKPEDTAVYYCHVSSGVYNYWGQGTQVTVSS
Ratio KD [3]: 0.19
Kd [2]: 1.48 nM
koff [2]: 0.000436 s⁻¹
kon [2]: 295000 M⁻¹ s⁻¹

B10: 2LIG99_D55K (VHH)
VHH: QVQLQESGGGLVQAGGSLRLSCTASGTIFSINRMDWFRQAPGKQRELVALITSKGTPAYADSAKGRFTISRDNTKKTVSLQMNSLKPEDTAVYYCHVSSGVYNYWGQGTQVTVSS
Ratio KD [3]: 0.61
Kd [2]: 0.459 nM
koff [2]: 0.0007 s⁻¹
kon [2]: 1.53e+06 M⁻¹ s⁻¹

B12: 2LIG99_G56R (VHH)
VHH: QVQLQESGGGLVQAGGSLRLSCTASGTIFSINRMDWFRQAPGKQRELVALITSDRTPAYADSAKGRFTISRDNTKKTVSLQMNSLKPEDTAVYYCHVSSGVYNYWGQGTQVTVSS
Ratio KD [3]: 0.28
Kd [2]: 1.01 nM
koff [2]: 0.000761 s⁻¹
kon [2]: 753000 M⁻¹ s⁻¹

B14: 2LIG189 VHH (VHH, not shown: small tags and cut ends)
VHH: QVQLQESGGGLVQAGGSLRLSCAASGKIFSGNDMGWYRQAPGKQRELVGIITSGGITDYADAVKGRFTISRDNAKNMMYLQMNSLKPEDTAVYYCNMRDRTIWWGQGTQVTVSS
notes: Parental PD-L1 VHH; stands here as the molecule on which the mutations are counted; also called wild-type 2LIG189
Kd [4]: 0.791 nM
koff [4]: 0.000148 s⁻¹
kon [4]: 187000 M⁻¹ s⁻¹
Kd [5]: 5.41 nM
koff [5]: 0.00131 s⁻¹
kon [5]: 243000 M⁻¹ s⁻¹

B16: 2LIG189_OPT4 (VHH)
VHH: DVQLVESGGGLVQPGGSLRLSCAASGKIFSGNDMGWYRQAPGKQRELVGIITSGGITDYADAVKGRFTISRDNSKNTVYLQMNSLRPEDTAVYYCNMRDRTIWWGQGTLVTVSS
Ratio KD [6]: 2.19
Kd [4]: 1.74 nM
koff [4]: 0.000301 s⁻¹
kon [4]: 174000 M⁻¹ s⁻¹

B18: 2LIG189_OPT3 (VHH)
VHH: DVQLVESGGGLVQPGGSLRLSCAASGKIFSGNDMGWYRQAPGKQRELVGIITSGGITDYADAVKGRFTISRDNSKNMVYLQMNSLRPEDTAVYYCNMRDRTIWWGQGTLVTVSS
Ratio KD [6]: 6.18
Kd [4]: 4.89 nM
koff [4]: 0.000942 s⁻¹
kon [4]: 193000 M⁻¹ s⁻¹

Continued, values first:

Kd [1]: 0.602 nM
koff [1]: 0.00112 s⁻¹
kon [1]: 1.87e+06 M⁻¹ s⁻¹
B3: P-2053: 2LIG99_OPT_D54G_A63V_K76N (Q1D_Q5V_A14P_D54G_A63V_T74S_K76N_K86R_Q110L) (VHH)
VHH: DVQLVESGGGLVQPGGSLRLSCTASGTIFSINRMDWFRQAPGKQRELVALITSGGTPAYADSVKGRFTISRDNSKNTVSLQMNSLRPEDTAVYYCHVSSGVYNYWGQGTLVTVSS
notes: not shown: C-terminal His-tag ('produced as described above')

Kd [1]: 0.735 nM
koff [1]: 0.000677 s⁻¹
kon [1]: 921000 M⁻¹ s⁻¹
B5: P-2056: 2LIG99_OPT_D54G_A63V_K76N_S79Y (Q1D_Q5V_A14P_D54G_A63V_T74S_K76N_K86R_S79Y_Q110L) (VHH)
VHH: DVQLVESGGGLVQPGGSLRLSCTASGTIFSINRMDWFRQAPGKQRELVALITSGGTPAYADSVKGRFTISRDNSKNTVYLQMNSLRPEDTAVYYCHVSSGVYNYWGQGTLVTVSS
notes: as for B3

Kd [1]: 0.0445 nM
koff [1]: 5.52e-05 s⁻¹
kon [1]: 1.24e+06 M⁻¹ s⁻¹
B8: P-2055: 2LIG99_OPT_D54G_K76N_S79Y (Q1D_Q5V_A14P_D54G_T74S_K76N_K86R_S79Y_Q110L) (VHH)
VHH: DVQLVESGGGLVQPGGSLRLSCTASGTIFSINRMDWFRQAPGKQRELVALITSGGTPAYADSAKGRFTISRDNSKNTVYLQMNSLRPEDTAVYYCHVSSGVYNYWGQGTLVTVSS
notes: as for B3

Kd [1]: 0.358 nM
koff [1]: 0.000599 s⁻¹
kon [1]: 1.67e+06 M⁻¹ s⁻¹
B9: P-2051: 2LIG99_OPT_D54G_K76N (Q1D_Q5V_A14P_D54G_T74S_K76N_K86R_Q110L) (VHH)
VHH: DVQLVESGGGLVQPGGSLRLSCTASGTIFSINRMDWFRQAPGKQRELVALITSGGTPAYADSAKGRFTISRDNSKNTVSLQMNSLRPEDTAVYYCHVSSGVYNYWGQGTLVTVSS
notes: as for B3

Kd [1]: 0.427 nM
koff [1]: 0.000779 s⁻¹
kon [1]: 1.83e+06 M⁻¹ s⁻¹
B11: P-2054: 2LIG99_OPT_D54G_A63V_S79Y (Q1D_Q5V_A14P_D54G_A63V_T74S_K86R_S97Y_Q110L) (VHH)
VHH: DVQLVESGGGLVQPGGSLRLSCTASGTIFSINRMDWFRQAPGKQRELVALITSGGTPAYADSVKGRFTISRDNSKKTVYLQMNSLRPEDTAVYYCHVSSGVYNYWGQGTLVTVSS
notes: The mutation list prints S97Y where the name prints S79Y; not shown: C-terminal His-tag ('produced as described above')

Kd [1]: 0.182 nM
koff [1]: 0.000279 s⁻¹
kon [1]: 1.54e+06 M⁻¹ s⁻¹
B13: P-2052: 2LIG99_OPT_D54G_S79Y (Q1D_Q5V_A14P_D54G_T74S_S79Y_K86R_Q110L) (VHH)
VHH: DVQLVESGGGLVQPGGSLRLSCTASGTIFSINRMDWFRQAPGKQRELVALITSGGTPAYADSAKGRFTISRDNSKKTVYLQMNSLRPEDTAVYYCHVSSGVYNYWGQGTLVTVSS
notes: as for B3

Kd [5]: 0.324 nM
koff [5]: 0.000145 s⁻¹
kon [5]: 446000 M⁻¹ s⁻¹
B15: 2LIG189_OPT_D33H (VHH)
VHH: DVQLVESGGGLVQPGGSLRLSCAASGKIFSGNHMGWYRQAPGKQRELVGIITSGGITDYADAVKGRFTISRDNSKNTVYLQMNSLRPEDTAVYYCNMRDRTIWWGQGTLVTVSS

Kd [5]: 1.94 nM
koff [5]: 0.000731 s⁻¹
kon [5]: 377000 M⁻¹ s⁻¹
B17: 2LIG189_OPT_N32R (VHH)
VHH: DVQLVESGGGLVQPGGSLRLSCAASGKIFSGRDMGWYRQAPGKQRELVGIITSGGITDYADAVKGRFTISRDNSKNTVYLQMNSLRPEDTAVYYCNMRDRTIWWGQGTLVTVSS

Kd [5]: 3.38 nM
koff [5]: 0.00056 s⁻¹
kon [5]: 166000 M⁻¹ s⁻¹
B19: 2LIG189_OPT_N32R_M97V (VHH)
VHH: DVQLVESGGGLVQPGGSLRLSCAASGKIFSGRDMGWYRQAPGKQRELVGIITSGGITDYADAVKGRFTISRDNSKNTVYLQMNSLRPEDTAVYYCNVRDRTIWWGQGTLVTVSS

Kd [5]: 2.32 nM
koff [5]: 0.000457 s⁻¹
kon [5]: 197000 M⁻¹ s⁻¹
B20: 2LIG189_OPT_N32R_M97I (VHH)
VHH: DVQLVESGGGLVQPGGSLRLSCAASGKIFSGRDMGWYRQAPGKQRELVGIITSGGITDYADAVKGRFTISRDNSKNTVYLQMNSLRPEDTAVYYCNIRDRTIWWGQGTLVTVSS

Kd [5]: 0.555 nM
koff [5]: 0.000329 s⁻¹
kon [5]: 593000 M⁻¹ s⁻¹
B21: SEQ ID NO: 73 (2LIG189 humanization variant with deamidation and oxidation risk sites removed) (VHH)
VHH: DVQLVESGGGLVQPGGSLRLSCAASGKIFSGNHMGWYRQAPGKQRELVGIITSGGITDYADAVKGRFTISRDNSKNTVYLQMNSLRPEDTAVYYCNIRDRTIWWGQGTLVTVSS
notes: also called 2LIG189 second wave variant

Reference: patent US20230002493A1 (ORIONIS BIOSCIENCES, published 2023)
